Data on 76 variants can be found in the RNAGym collection of RNA variant scans (doi:10.7554/elife.80360).

B1: Hairpin Ribozyme (parent)
chain: GUCCUCUUUCACGUGCGCGUGAAAGAGAGAAGUGAACCAGAGAAACACACGUUGUGGUAUAUUACCUGGUA

The variants in the data set derive from B1. The data set can be described thus: self-cleavage, relative activity (ratio to wild type); higher = more cleavage; co-transcriptional.
On to GUCCCCUUUCUCGUGCGCGUGAAAGAGAGAAGUGAACCAGAGAAACACACGUUGUGGUAUAUUACCUGGUA, for which the self-cleavage stood at 0.55.
For GUCCCCUUUCGCGUGCGCGUGAAAGAGAGAAGUGAACCAGAGAAACACACGUUGUGGUAUAUUACCUGGUA the value was 0.481.
Regarding GUCCACUUUCACGUGCGCGUGAAAGAGAGAAGUGAACCAGAGAAACACACGUUGUGGUCUAUUACCUGGUA, the self-cleavage was determined as 0.262.
For the variant GUCCACUUUCACGUGCGCGUGAAAGAGAGAAGUGAACCAGAGAAACACACGUUGUGGUAUAUUACCUGGUG, the self-cleavage stood at 0.264.
In the case of GUCCACUUUCACGUGCGCGUGAAAGAGAGAAGUGAACCAGAGAAACACACGUUGUGGUAUAUUACCUGGUU, the self-cleavage was 0.334.
Under GUCCACUUUCACGUGCGCGUGAAAGAGAGAAGUGAACCAGAGAUACACACGUUGUGGUAUAUUACCUGGUA stands 0.125.
Regarding GUCCACUUGCACGUGCGCGUGAAAGAGAGAAGUGAACCAGAGAAACACACGUUGUGGUAUAUUACCUGGUA, the self-cleavage worked out at 0.231.
With GUCCACUUACACGUGCGCGUGAAAGAGAGAAGUGAACCAGAGAAACACACGUUGUGGUAUAUUACCUGGUA, the self-cleavage worked out at 0.371.
As to GUCCACUUUCACGUGCGCGUGAAAGAGAGAAGUGAACCAGAGAAACACACGGUGUGGUAUAUUACCUGGUA, the self-cleavage worked out at 0.392.
On to GUCCACUUUCACGUGCGCGUGAAAGAGAGAAGUGAACCAGAGAAACACACGCUGUGGUAUAUUACCUGGUA, for which the self-cleavage stood at 0.274.
With GUCCACCUUCACGUGCGCGUGAAAGAGAGAAGUGAACCAGAGAAACACACGUUGUGGUAUAUUACCUGGUA, the self-cleavage amounted to 0.107.
With GUCCACAUUCACGUGCGCGUGAAAGAGAGAAGUGAACCAGAGAAACACACGUUGUGGUAUAUUACCUGGUA, the self-cleavage is 0.105.
In the case of GUCCACUUUCACGUGCGUGUGAAAGAGAGAAGUGAACCAGAGAAACACACGUUGUGGUAUAUUACCUGGUA, the self-cleavage is 0.554.
As for GUCCACUUUCACGUGCGCGUGAAAGAGAGAAGUGAACCAGAGAAACACACUUUGUGGUAUAUUACCUGGUA, the self-cleavage was determined as 0.389.
For the variant GUCCACUUUCACGUGCGCGUGAAAGAGAGAAGUGAACCAGAGAAACACACCUUGUGGUAUAUUACCUGGUA, the self-cleavage was 0.324.
With GUCCACUUUCACGUGCGCGUGAAAGAGAGAAGUGAACCAGAGAAACACACGUUGUGGUAUUUUACCUGGUA, the self-cleavage stood at 0.185.
As to GUCCACUUUCACGUGCGCGUGAAAGAGAGAAGUGAACCAGAGAAACACACGUUGUGGUAUGUUACCUGGUA, the self-cleavage was determined as 0.0553.
For GUCCACUUUCACGUGCGCGUGCAAGAGAGAAGUGAACCAGAGAAACACACGUUGUGGUAUAUUACCUGGUA, the self-cleavage amounted to 0.339.
Turning to GUCCACUUUCACGUGCGCGUGGAAGAGAGAAGUGAACCAGAGAAACACACGUUGUGGUAUAUUACCUGGUA, the self-cleavage worked out at 0.308.
Turning to GUCCCCUUUCACGUGCGCGUGAAAGAGAGAUGUGAACCAGAGAAACACACGUUGUGGUAUAUUACCUGGUA, the self-cleavage is 0.0715.
Regarding GUCCCCUUUCACGUGCGCGUGAAAGAGAGAGGUGAACCAGAGAAACACACGUUGUGGUAUAUUACCUGGUA, the self-cleavage worked out at 0.391.
For GUCCCCUUUCACGUGCGCGUGAAAGAGAGACGUGAACCAGAGAAACACACGUUGUGGUAUAUUACCUGGUA the value was 0.0543; for GUCCACUUUCACGUGCGCGUGAAAGAGAGAAGAGAACCAGAGAAACACACGUUGUGGUAUAUUACCUGGUA, 0.145; for GUCCACUUUCACGUGCGCGUGAAAGAGAGAAGUGAACGAGAGAAACACACGUUGUGGUAUAUUACCUGGUA, 0.0942.
Turning to GUCCACUUUCACGUGCGCGUGAAAGAGAGAAGUGAACCACAGAAACACACGUUGUGGUAUAUUACCUGGUA, the self-cleavage was found to be 0.159.
Turning to GUCCACUUUCACGUGCGCGUGAAAGAGAGAAGUGAACCAGAGAAACACACGUUGUGGUAUACUACCUGGUA, the self-cleavage turned out to be 0.224.
For the variant GUCCACUUUCACGUGCGCGUGAAAGAGAGAAGUGAACCAGAGAAACACACGUUGUGGUAUAAUACCUGGUA, the self-cleavage was determined as 0.139.
GUCCACUUUCACGUGCGCGUGAAAGAGAGAAGUGAACCAGAGAAACACACGUUGUGGUAGAUUACCUGGUA: the self-cleavage worked out at 0.29.
GUCCACUUUCACGUGCGCGUGAAUGAGAGAAGUGAACCAGAGAAACACACGUUGUGGUAUAUUACCUGGUA: the self-cleavage came out at 0.273.
With GUCCACUUUCACGUGCGCGUGAAAGAGAGAAGUGAACCAGAGAAACACACGUUCUGGUAUAUUACCUGGUA, the self-cleavage turned out to be 0.124.
For the variant GUCCACUUUCACGUGCGCGUGAAAGAGAGAAGUGAACCAGAGAAACACACGUUUUGGUAUAUUACCUGGUA, the self-cleavage is 0.327.
Under GUCCACUUUCACGUGCGCGUGAAAGAGAGAAGUGAACCAGAGAAACACACGUUAUGGUAUAUUACCUGGUA stands 0.192; under GUCCACUUUCACGUGCGCGUGAAAGAGAGAAGUGAACCAGAGAAACAAACGUUGUGGUAUAUUACCUGGUA, 0.0341.
For GUCCACUUUCACGUGCGCGUGAAAGAGAGAAGUGAUCCAGAGAAACACACGUUGUGGUAUAUUACCUGGUA, the self-cleavage is 0.255.
Under GUCCCCUUUCACGUGCGCGUGAAAGAGGGAAGUGAACCAGAGAAACACACGUUGUGGUAUAUUACCUGGUA stands 0.358; under GUCCCCUUUCACGUGCGCGUGAAAGAGUGAAGUGAACCAGAGAAACACACGUUGUGGUAUAUUACCUGGUA, 0.277.
As to GUCCACUUUCACGUGCGCGUGAAAGAGAGAAGUGCACCAGAGAAACACACGUUGUGGUAUAUUACCUGGUA, the self-cleavage is 0.364.
Under GUCCACUUUCACGUGCGCGUGAAAGAGAGAAGUGAACCAGGGAAACACACGUUGUGGUAUAUUACCUGGUA stands 0.162.
Consider GUCCACUUUCACGUGCGCGUGAAAGAGAGAAGUGAACCAGAGAAACACACGUUGUGGUAUAUUACCUGGGA, for which the self-cleavage amounted to 0.171.
Under GUCCACUUUCACGUGCGCGUGAAAGGGAGAAGUGAACCAGAGAAACACACGUUGUGGUAUAUUACCUGGUA stands 0.244.
Turning to GUCCACUUUCACGUGCGCGUGAAAGAGAGGAGUGAACCAGAGAAACACACGUUGUGGUAUAUUACCUGGUA, the self-cleavage stood at 0.119.
As to GUCCACUUUCACGUGCGCGUGAAAGAGAGUAGUGAACCAGAGAAACACACGUUGUGGUAUAUUACCUGGUA, the self-cleavage is 0.263.
As to GUCCCCUUUCACGUGCGCGUGAAAGAGAGAAGUGAACCUGAGAAACACACGUUGUGGUAUAUUACCUGGUA, the self-cleavage is 0.228.
For the variant GUCCACUUUCACGUGCGCGUGACAGAGAGAAGUGAACCAGAGAAACACACGUUGUGGUAUAUUACCUGGUA, the self-cleavage was 0.436.
GUCCACUUUCACGUGCGCGUGAUAGAGAGAAGUGAACCAGAGAAACACACGUUGUGGUAUAUUACCUGGUA: the self-cleavage amounted to 0.323.
GUCCACUUUCACGUGCGCGUGAAAGAGUGAAGUGAACCAGAGAAACACACGUUGUGGUAUAUUACCUGGUA: the self-cleavage was 0.126.
For GUCCACUUUCACGUGCGCGUGAAAGAGGGAAGUGAACCAGAGAAACACACGUUGUGGUAUAUUACCUGGUA the value was 0.471.
Take GUCCACUUUCACGUGCGCGUGAAAGAGCGAAGUGAACCAGAGAAACACACGUUGUGGUAUAUUACCUGGUA: the self-cleavage is 0.297.
Take GUCCACUUUCACGAGCGCGUGAAAGAGAGAAGUGAACCAGAGAAACACACGUUGUGGUAUAUUACCUGGUA: the self-cleavage was determined as 0.164.
As to GUCCACUUUCACGUGCGCGUGAAAGAGAGAAGUGAACCAGAGAAACACACGUUGUGGUAUAUUACCGGGUA, the self-cleavage is 0.112.
Consider GUCCACUUUCACGUGCGCGUGAAAGAGAGAAGUGAACCAGAGAAACACACGUUGUGGUAUAUUACCUGCUA, for which the self-cleavage is 0.0571.
Under GUCCACUUUCACGUGCGCGUGAAAGAGAGAAGUGAACCAGAGAAACACACGUUGUGGUAUAUUACCUGUUA stands 0.115; under GUCCACUUUCACGUGCGCGUGAAAGAGAGAAGUGAACCAGAGAAACACACGUUGUGGUAUAUUACCUGAUA, 0.0903.
Regarding GUCCCCUUUCACGUGCGCGUGGAAGAGAGAAGUGAACCAGAGAAACACACGUUGUGGUAUAUUACCUGGUA, the self-cleavage turned out to be 0.63.
For GUCCACUUUCACGUGCGCGUGAAACAGAGAAGUGAACCAGAGAAACACACGUUGUGGUAUAUUACCUGGUA the value was 0.162.
GUCCACUUUCACGUGCGCGUGAAAAAGAGAAGUGAACCAGAGAAACACACGUUGUGGUAUAUUACCUGGUA: the self-cleavage stood at 0.106.
As for GUCCACUUUCACGUGCGCGUGAAAGAGAGAAGUGAACCAGAGAAACACACGUUGUAGUAUAUUACCUGGUA, the self-cleavage was determined as 0.214.
Regarding GUCCACUUUCACGUGCGCGUGAAAGAGAGAAGUGAACCAGAGAAACACACGUUGUGGGAUAUUACCUGGUA, the self-cleavage is 0.251.
With GUCCACUUUCACGUGCGCAUGAAAGAGAGAAGUGAACCAGAGAAACACACGUUGUGGUAUAUUACCUGGUA, the self-cleavage is 0.395.
As to GUCCACUUUCACGUGCGCGUCAAAGAGAGAAGUGAACCAGAGAAACACACGUUGUGGUAUAUUACCUGGUA, the self-cleavage was 0.156.
As to GUCCACUUUCACGUGCGCGUAAAAGAGAGAAGUGAACCAGAGAAACACACGUUGUGGUAUAUUACCUGGUA, the self-cleavage turned out to be 0.378.
Under GUCCCCUUUCACGUGCGCGUGAAAGAGAGAAGUGAACCAGCGAAACACACGUUGUGGUAUAUUACCUGGUA stands 0.734.
As for GUCCACUUUCACGUGCGCGUGAAAGAGAGAAGUGAACCAGAGUAACACACGUUGUGGUAUAUUACCUGGUA, the self-cleavage stood at 0.188.
As for GUCCCCUUUCACGUGCGCGUGAAAGAGAGAAGUGAACCAGAGUAACACACGUUGUGGUAUAUUACCUGGUA, the self-cleavage turned out to be 0.0569.
Consider GUCCCCUUUCACGUGCGCGUGAAAGAGAGAAGUGAACCAGAGCAACACACGUUGUGGUAUAUUACCUGGUA, for which the self-cleavage worked out at 0.193.
Turning to GUCCCCUUUCACGUGCGCGUGAAAGAGAGUAGUGAACCAGAGAAACACACGUUGUGGUAUAUUACCUGGUA, the self-cleavage was 0.11.
Turning to GUCCACUUUCGCGUGCGCGUGAAAGAGAGAAGUGAACCAGAGAAACACACGUUGUGGUAUAUUACCUGGUA, the self-cleavage was found to be 0.324.
Regarding GUCCACUUUGACGUGCGCGUGAAAGAGAGAAGUGAACCAGAGAAACACACGUUGUGGUAUAUUACCUGGUA, the self-cleavage was 0.129.
In the case of GUCCACUUUAACGUGCGCGUGAAAGAGAGAAGUGAACCAGAGAAACACACGUUGUGGUAUAUUACCUGGUA, the self-cleavage amounted to 0.188.
Under GUCCACUUUCACGUGCGCGUGAAAGAGAGAAGUGAACCAGAGAAACACACGUUGUGGUAUAUUAACUGGUA stands 0.22; under GUCCACUUUCACGUGCGCGUGAAAGAGAGAAGUGAACCAGAGAAACACACGUUGUGGUAUAUUAUCUGGUA, 0.222.
Regarding GUCCACUUUCACGUGCGCGUGAAAGAGAGAAGUGAACCAGAGAAACACACGUUGUGGUAUAUUAGCUGGUA, the self-cleavage came out at 0.276.
In the case of GUCCCCUUUCACGUGCGCGUGAUAGAGAGAAGUGAACCAGAGAAACACACGUUGUGGUAUAUUACCUGGUA, the self-cleavage was found to be 0.461.
Under GUCCCCUUUCACGUGCGCGUGAAAGCGAGAAGUGAACCAGAGAAACACACGUUGUGGUAUAUUACCUGGUA stands 0.497; under GUCCACUUUCACGUGCGCGUGAAAGAGAAAAGUGAACCAGAGAAACACACGUUGUGGUAUAUUACCUGGUA, 0.156; under GUCCACUUUCACGUGCGCGUGAAAGAGAUAAGUGAACCAGAGAAACACACGUUGUGGUAUAUUACCUGGUA, 0.0792.
